Tests used:
[1] = target: T1, hFcRn (extracellular domain of the FcRN) (Homo sapiens, UniProt P55899); test: FcRn binding by surface plasmon resonance (Biacore)
T1 construct: made in house
Source text: Binding to the Fc neonatal receptor (FcRN) allows for recycling of the molecules and leads to an extended in vivo serum half-life of the Fc fusion proteins. Recycling occurs as the molecules are passively taken into the cells and the pH of the endosomes is lower. That leads to binding of the Fc portion of the molecule to the FcRN. When the FcRN recycles back to the surface of the cell, the pH is then neutral and the protein is released back into the serum.
Binding to the extracellular domain of the FcRN was measured by surface plasmon resonance (SPR) using a Biacore system. Direct immobilization with FcRn was achieved via amine coupling of a CM5 chip with FcRn under the following conditions: • i) hFcRn (expressed and purified in house) is diluted in Acetate buffer pH 5.0 to 5 μg/mL. • ii) Immobilize 5 μg/mL of FcRn with target of 500 RU on CM5 chip in PBS pH 7.0 • iii) Final response 454 RU • iv) Running buffer: PBS-P+, pHed to 5.5
The kinetic binding study was done using the following protocol. Samples were diluted in PBS-P+ to 50, 25, 12.5, 6.25, 3.125, 1.56, 0.78, 0.39, 0 nM. The parameters were set as follows: • i) Association and Dissociation 300 s at Flow rate 30 μL/min • ii) Regeneration with 25 mM Tris, 150 mM NaCl pH 8.0 40 s at 60 μL/min
A measurement of the binding of the GLP-2 peptibodies to the Fc neonatal receptor (FcRN) was undertaken at pH 5.5 and pH 7.4.

[2] = NanoDSF melting temperature / thermal stability; assay type: physicochemical; conditions: for NanoDSF melting temperature 1: first transition
Experimental: Each of the GLP-2 peptibodies was tested by determining melting temperature with nanodifferential scanning fluorimetry (NanoDSF). NanoDSF is a measurement of protein stability over a range of temperatures, with a temperature ramp employed. The stability of tryptophan is measured by fluorescence, as reflected in a ratio of fluorescence at 350 nm to fluorescence at 330 nm. From the assay, one or more melting temperatures are determined. Because a protein in a certain state is understood to have a melting temperature, the number of melting temperatures observed reflects the number of different states.
(§1) Stability analysis was then performed using SEC-MALS and NanoDSF. For SEC-MALS, a Sepax Zenix C-150 column was used. The mobile phase buffer was 1× PBS with a final concentration of 400 mM NaCl. The flow rate was 0.8 mL per minute. 20 micrograms of total protein was injected. For NanoDSF, 10 microliters of sample was used, without normalization of the samples.
as §1

[3] = Rat pharmacokinetics, subcutaneous dosing; assay type: in vivo, Sprague-Dawley rats; conditions: single dose 1 mg/ml
Experimental: (§2) In the rat, four pharmacokinetic parameters were measured for Gattex® (a GLP-2 peptide having the A2G mutation): CL, Vc, Vt and Q. The same pharmacokinetic parameters were also measured for GLP-2 peptibodies A, B, E, J, K, L, M, O and P. The data is shown in Table 5. Male Sprague-Dawley rats (3 animals per group) were injected subcutaneously into the intra-scapular region of the animal. A singles dose of test article was injected at a dose level of 1 mg/ml. The test articles were formulated in PBS pH 7.4 at a concentration of Blood samples were taken 0.083, 0.167, 0.33, 0.5, 1, 2, 6, 24, 48, 72, 120, 168, 240, and 336 hours post dose. Blood samples were collected into heparinized tubes and centrifuged for 5 minutes at 2000 xg within 10 minutes of collection. 100 μL of plasma were transferred to a 1.51 ml Eppendorf tube containing 2 μL of 50 mM PMSF. After mixing the plasma samples were frozen at −80° C. until analysis. Meso Scale Discovery (MSD) ELISA was undertaken to assay for the concentration of the GLP-2 peptibodies.
A sandwich immunoassay was developed using either an anti-Human IgG1 Fc antibody or an anti-human albumin antibody for capture of the peptibody and a sulfotag labeled anti GLP-2 antibody for detection.

[4] = SEC-MALS (Sepax Zenix C-150) peak distribution; assay type: physicochemical
Experimental: A SEC-MALS assay was performed to determine the primary state (main peak) and its molecular weight. […] The GLP-2 peptibody O (albumin fusion) eluted at a molecular weight indicative of a monomer.
as §1, §1

[5] = Rat pharmacokinetics, intravenous dosing; assay type: in vivo, Sprague-Dawley rats; conditions: single dose 1 mg/ml
Experimental: as §2, with “4.” for “5.”, “intravenously either via a jugular vein or tail vein catheter.” for “subcutaneously into the intra-scapular region of the animal.”, “1.5” for “1.51”, “mixing,” for “mixing”, “analysis.” for “analysis. Meso Scale Discovery (MSD) ELISA was undertaken to assay for the concentration of the GLP-2 peptibodies.”

[6] = Projection of intravenous and subcutaneous PK parameters for humans; set-up: species or system human
Experimental: While a dose of 30 μg/kg once weekly (QW) is projected from the cynomolgus monkey PK data, the dose should be ten times higher (300 μg/kg) to adjust for the difference in in vivo potency.

[7] = Cynomolgus monkey pharmacokinetic study; assay type: in vivo, cynomolgus monkeys; conditions: 0.75 mg/kg
Experimental: Pharmacokinetics studies of teduglutide, GLP-2 Peptibody B and GLP-2 Peptibody K were formed in cynomolgus monkeys with citrulline assayed as a biomarker of GLP-2 concentration. In the study, 12.5 nmol/kg teduglutide was administered subcutaneously to a group of 6 male cynomolgus monkeys at day 1. Then for one set of 2 monkeys, 25 nmol/kg GLP-2 Peptibody B was administered intravenously at day 7, day 21, day 28, day 35, and day 42. For another set of 3 monkeys, 25 nmol/kg GLP-2 Peptibody B was administered subcutaneously at day 7, day 21, day 28, day 35, and day 42. For another set of monkeys, 5 nmol/kg GLP-2 Peptibody K was administered intravenously (2 monkeys) and subcutaneously (3 monkeys) at day 7, day 21, day 28, day 35, and day 42. For another set of monkeys, 25 nmol/kg GLP-2 Peptibody K was administered subcutaneously (3 monkeys) and intravenously (2 monkeys) at day 7, day 21, day 28, day 35, and day 42.

T1 sequence (P55899 24-297 limits assumed): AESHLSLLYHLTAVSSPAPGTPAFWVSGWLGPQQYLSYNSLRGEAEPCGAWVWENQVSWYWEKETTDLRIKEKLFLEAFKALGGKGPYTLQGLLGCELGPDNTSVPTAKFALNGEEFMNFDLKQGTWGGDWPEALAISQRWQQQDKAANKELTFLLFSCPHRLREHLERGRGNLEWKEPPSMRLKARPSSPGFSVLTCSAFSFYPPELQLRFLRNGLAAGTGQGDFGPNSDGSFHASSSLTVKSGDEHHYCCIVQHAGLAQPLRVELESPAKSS
T1 sequence (P61769 21-119 partner): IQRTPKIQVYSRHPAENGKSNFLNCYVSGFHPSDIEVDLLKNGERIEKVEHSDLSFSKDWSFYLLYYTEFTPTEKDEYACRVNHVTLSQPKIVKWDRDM

With “GLP-2 peptibody O: fusion protein between GLP-2, a linker, and amino acids 25-609 of human serum albumin; SEQ ID NO: 28” the “FcRN KD at pH 5.5” value ([1]; pH 5.5) was “substantially higher KD”, the Kd ([1]; pH 5.5) was 1.37 µM and the “FcRN KD at pH 7.4” value [1] was “No binding in range tested”. For the same substance, the “NanoDSF melting temperature 1” value [2] was 1 = 57.6 °C, the CL [3] was 30.9 mL/h/kg and the Vc [3] was 0.565 L/kg. The ka [3] was “O (1.26 ka/day,”, the “SEC-MALS Zenix C-150 main peak” value [4] was 89.5% main peak, 76,500 g/mol and the CL [5] was 5.42 mL/h/kg. The Q [5] was 57.5 mL/h/kg, the Vc [5] was 0.0432 L/kg and the Vt [5] was 0.054 L/kg.

For “GLP-2 peptibody B: GLP-2[A2G]-GGGGG linker-IgG1 Fc (LALA) with C-terminal lysine; SEQ ID NO: 4”, the Kd ([1]; pH 5.5) was 0.0017 µM, the “FcRN KD at pH 7.4” value [1] was “No binding in range tested” and the “NanoDSF melting temperature 1” value [2] was 1 = 67.1 °C. For the same substance, the “NanoDSF melting temperature 2” value ([2]; second transition) was 2 = 79.9 °C, the CL [3] was 1.79 mL/h/kg and the Q [3] was 2.17 mL/h/kg. For the same substance, the Vc [3] was 0.073 L/kg, the Vt [3] was 0.068 L/kg and the ka [3] was “B (0.45 ka/day,”. For the same substance, the Vc [6] was 0.0494 L/kg, the Vt [6] was 0.0425 L/kg and the ka [6] was 2.43 day⁻¹. The “CL (value in parentheses)” value ([6]; exponent on CL 0.85, monkey 3.5 kg, human 70 kg) was 1.04 mL/h/kg, the CL ([6]; first value of cell) was 1.63 mL/h/kg and the F ([6]; first value of cell) was 98%. For the same substance, the Q ([6]; first value of cell) was 1 mL/h/kg, the “F (value in parentheses)” value ([6]; value in parentheses) was 60% and the “Q (value in parentheses)” value ([6]; value in parentheses) was 0.642 mL/h/kg. For the same substance, the “SEC-MALS Zenix C-150 main peak” value [4] was 85% main peak, 158,800 g/mol, the CL [5] was 2 mL/h/kg and the Q [5] was 2.42 mL/h/kg. The Vc [5] was 0.031 L/kg, the Vt [5] was 0.076 L/kg and the CL ([7]; MDPK, intravenous) was 0.417 mL/h/kg. It also gave a Q ([7]; MDPK, intravenous) of 1.2 mL/h/kg, a Vc ([7]; MDPK, intravenous) of 0.0187 L/kg and a Vt ([7]; MDPK, intravenous) of 0.0329 L/kg. For the same substance, the CL/F ([7]; MDPK, subcutaneous) was 0.737 mL/h/kg, the Vc ([7]; MDPK, subcutaneous) was 0.094 L/kg and the “association constant (ka)” value ([7]; MDPK, subcutaneous) was 1.59 day⁻¹. It also gave a CL ([7]; SDPK, intravenous) of 0.396 mL/h/kg, a Q ([7]; SDPK, intravenous) of 1.11 mL/h/kg and a Vc ([7]; SDPK, intravenous) of 0.0171 L/kg. It also gave a Vt ([7]; SDPK, intravenous) of 0.0276 L/kg, a CL/F ([7]; SDPK, subcutaneous) of 0.737 mL/h/kg and a Vc ([7]; SDPK, subcutaneous) of 0.0924 L/kg. For the same substance, the “association constant (ka)” value ([7]; SDPK, subcutaneous) was 1.52 day⁻¹.

— patent US20230031280A1, “GLP-2 FUSION POLYPEPTIDES AND USES FOR TREATING AND PREVENTING GASTROINTESTINAL CONDITIONS” (SHIRE-NPS PHARMACEUTICALS, INC., priority 2017, published 2023)
